{"source": "paper PMC5823908", "about": "“Human mitochondrial pyruvate carrier 2 as an autonomous membrane transporter” (Scientific Reports, 2018)", "proteins": {"B1": {"name": "purified human MPC2 after removal of GFP-10xHis (natural protein, UniProt O95563 1-127, looked up)", "chain": "MSAAGARGLRATYHRLLDKVELMLPEKLRPLYNHPAGPRTVFFWAPIMKWGLVCAGLADMARPAEKLSTAQSAVLMATGFIWSRYSLVIIPKNWSLFAVNFFVGAAGASQLFRIWRYNQELKAKAHK", "notes": "human mitochondrial pyruvate carrier 2 (MPC2), codon-optimized synthetic gene, NCBI NP_001137146.1; Residues of the PreScission site probably stay at the C-terminus after cleavage; also called purified MPC2; MPC2-detergent (DDM) complex; source: S. cerevisiae lacking endogenous MPC (3Δ); extracted with 1% C12E8, purified by Co-IMAC, PreScission Protease removal of GFP-10xHis, gel filtration in …"}}, "target": "the molecule itself", "test": "cross-linking; purified MPC2-detergent (DDM) complex, about 10 μg protein, DSS 0.2-4 mM, 30 min, room temperature, 20 mM HEPES pH 8.0, 300 mM NaCl, 5% glycerol, 0.05 mM TCEP, 0.03% DDM"}
{"protein": "B1", "values": [{"measurement": "stoichiometry N", "value": 2}]}
